According to US20240025956A1 (MIYAGI PREFECTURAL HOSPITAL ORGANIZATION, published 2024):

T1: mouse IL-2 receptor α (mouse, UniProt P01590 22-268)
T1 construct: whole, on cells; also called mouse IL-2Rα; CD25
T1 sequence (looked up): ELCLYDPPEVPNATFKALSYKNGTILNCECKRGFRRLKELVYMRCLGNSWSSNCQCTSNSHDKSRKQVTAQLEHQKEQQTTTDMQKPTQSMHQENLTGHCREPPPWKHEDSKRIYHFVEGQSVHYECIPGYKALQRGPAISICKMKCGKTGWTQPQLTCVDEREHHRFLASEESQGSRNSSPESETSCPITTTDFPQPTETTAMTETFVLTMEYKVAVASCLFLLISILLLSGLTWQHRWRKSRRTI

T2: human IL-2 receptor α (human, UniProt P01589 22-272)
T2 construct: whole, on cells; also called IL-2Rα; CD25
T2 sequence (looked up): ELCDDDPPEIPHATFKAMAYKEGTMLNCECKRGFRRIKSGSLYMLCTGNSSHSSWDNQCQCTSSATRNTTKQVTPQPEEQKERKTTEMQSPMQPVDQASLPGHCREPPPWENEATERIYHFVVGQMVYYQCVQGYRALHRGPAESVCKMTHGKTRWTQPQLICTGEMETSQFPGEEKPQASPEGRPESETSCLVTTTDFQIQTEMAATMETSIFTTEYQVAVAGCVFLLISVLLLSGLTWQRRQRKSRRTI


Key:
mouse IL-2 receptor α [1] = molecular target: T1, mouse IL-2 receptor α; experiment: NanoLuc on-cell binding, mouse IL-2Rα-expressing 293T, ratio 293Ta/293T, 10 nM
Procedure: (§1) Next, IL-2 receptor α binding capability on cells (on-cell receptor binding) was measured. Specifically, 293T cells were obtained from the RIKEN Cell Bank (RCB2202). Human and mouse IL-2 receptor α-expressing 293T (293Ta) was established as cells stably expressing the IL-2 receptor α in 293T through use of lentiviral vectors (pSIN-EF-RfA2-1-human IL-2Ra and pSIN-EF-RfA2-1-mouse IL-2Ra) constructed respectively with human and mouse IL-2 receptor α-chain genes (NCBI Reference Sequence: NM_000417.2 and NM_008367.3) as cassettes. 293T and human or mouse 293Ta were allowed to adhere to a 24 wel cell culture plate (Techno Plastic Products AG, #92424). After that, a suspension (10 nM) of NanoLuc (trademark) luciferase sequence (Promega Corporation, USA)-fused mature stable mutant human MK-4-IL-2 (MK-4, pcDNA4-MK-4-NLuc, corresponding to a comparative example), mature stable mutant human MK-6-IL-2 (MK-6, pcDNA4-MK-6-NLuc), mature stable mutant human IL-2 (MK-14, pcDNA4-MK-14-NLuc, IL-2 positive control), or mature stable mutant human MK-15-IL-2 (MK-15, pcDNA4-MK-15-NLuc) was added, and the mixture was subjected to a reaction by being left at rest at 4° C. for 1 hour. The cells were washed, followed by quantification. The binding capability of mutant IL-2 for the α-subunit is shown as a numerical value for a ratio between amounts bound to 293Ta and 293T (293Ta/293T). […]

human IL-2 receptor α = molecular target: T2, human IL-2 receptor α; experiment: NanoLuc on-cell binding, human IL-2Rα-expressing 293T, ratio 293Ta/293T
Procedure: as §1

mouse IL-2 receptor α [2] = molecular target: T1, mouse IL-2 receptor α; experiment: NanoLuc on-cell binding, mouse IL-2Rα-expressing 293T, ratio 293Ta/293T
Procedure: as §1

binding result (mouse IL-2 receptor α [1])	binding result (human IL-2 receptor α)	binding result (mouse IL-2 receptor α [2])	Binder
binds			NanoLuc luciferase sequence-fused mature stable mutant human MK-4-IL-2 (ligand, not shown: large carriers, also called pcDNA4-MK-4-NLuc) APASSSTKKTQLQLEHLLLDLQMILNGINNYKNPALTAMLTFKFYMPKKATELKHLQCLEEELKPLEEVLNLAQSKNFHLRPRDLISNINVIVLELKGSETTFMCEYADETATIVEFLNRWITFAQSIISTLT
	no binding (tested: 10 nM)		NanoLuc luciferase sequence-fused mature stable mutant human MK-6-IL-2 (ligand, not shown: large carriers, also called pcDNA4-MK-6-NLuc) APASSSTKKTQLQLEHLLLDLQMILNGINNYKNPALTAMLTFAFAMPKKATELKHLQCLEEELKPLEEVLNLAQSKNFHLRPRDLISNINVIVLELKGSETTFMCEYADETATIVEFLNRWITFAQSIISTLT
	no binding (tested: 10 nM)	no binding (tested: 10 nM)	NanoLuc luciferase sequence-fused mature stable mutant human MK-15-IL-2 (ligand, not shown: large carriers, also called pcDNA4-MK-15-NLuc) APASSSTKKTQLQLEHLLLDLQMILNGINNYKNPALTAMLTAKFAMPKKATELKHLQCLEEELKPLEEVLNLAQSKNFHLRPRDLISNINVIVLELKGSETTFMCEYADETATIVEFLNRWITFAQSIISTLT
